Reference: patent US20150299314A1 (TORAY INDUSTRIES, published 2015)
Substitutions are numbered along the chain they refer to. Values belong to the binder of their own block, whether it stands above or below them.

Experiments:
[1] = molecular target: T1, CAPRIN-1 protein expressed on the cell surface of human cancer cells (human, UniProt Q14444 2-709); experiment: flow cytometry, TGBC14TKB cells, culture supernatant, isotype control antibody as control
T1 construct: whole, on cells; Target of all flow cytometry and ADCC assays; the cell line is named under assay; also called human CAPRIN-1; cytoplasmic- and proliferation-associated protein 1
T1 sequence (looked up): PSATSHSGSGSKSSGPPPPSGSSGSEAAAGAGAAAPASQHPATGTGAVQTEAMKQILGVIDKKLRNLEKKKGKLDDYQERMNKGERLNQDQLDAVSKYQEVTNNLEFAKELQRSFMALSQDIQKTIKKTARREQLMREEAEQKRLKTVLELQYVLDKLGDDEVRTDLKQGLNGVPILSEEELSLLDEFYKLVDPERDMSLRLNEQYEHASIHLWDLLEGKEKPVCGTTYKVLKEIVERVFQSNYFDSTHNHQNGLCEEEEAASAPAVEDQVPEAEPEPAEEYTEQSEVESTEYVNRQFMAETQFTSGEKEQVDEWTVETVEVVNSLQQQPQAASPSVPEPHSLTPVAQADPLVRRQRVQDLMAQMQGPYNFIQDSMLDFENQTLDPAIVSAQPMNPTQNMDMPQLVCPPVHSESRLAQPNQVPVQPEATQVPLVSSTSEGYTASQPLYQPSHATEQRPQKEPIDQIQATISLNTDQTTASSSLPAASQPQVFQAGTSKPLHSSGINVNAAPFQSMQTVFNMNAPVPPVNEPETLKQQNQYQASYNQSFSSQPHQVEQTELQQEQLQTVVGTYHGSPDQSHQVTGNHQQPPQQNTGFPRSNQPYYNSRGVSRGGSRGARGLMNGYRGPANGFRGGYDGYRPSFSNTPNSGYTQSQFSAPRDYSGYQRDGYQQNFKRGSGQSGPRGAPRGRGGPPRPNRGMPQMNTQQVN
Description: Subsequently, a gallbladder cell line TGBC14TKB, which was confirmed to express a CAPRIN-1 gene, was investigated for whether or not a CAPRIN-1 protein is expressed on the surfaces of these cells. 1×10⁶ cells of TGBC14TKB were centrifuged with a 1.5-mL micro centrifugation tube. To the cells was added the culture supernatant (100 μL) containing any of anti-CAPRIN-1 mouse monoclonal antibodies #1 to #22 reacting to cancer cell surface produced in Example 4 and anti-CAPRIN-1 mouse-chicken chimeric antibodies #1 to #3 produced in the above (2), followed by being left to stand on ice for 1 hour. After washing with PBS, the cells were suspended in a FITC-labeled goat anti-mouse IgG antibody (manufactured by life technologies) diluted by 500-fold with PBS containing 0.1% FBS, followed by being left to stand on ice for 1 hour. After washing with PBS, the fluorescence intensity was measured with FACS Calibur available from Becton, Dickinson and Company. Separately, as a control, the same procedure as in above was performed using an iso-type control antibody, instead of the culture supernatants containing the anti-CAPRIN-1 mouse monoclonal antibodies #1 to #22 and the mouse-chicken chimeric antibodies #1 to #3. As a result, the fluorescence intensity in the cells to which any of the monoclonal antibodies #1 to #22 and the mouse-chicken chimeric antibodies #1 to #3 was added was 20% or more higher than that in the control in every case. Specifically, in the case of using mouse-chicken chimeric antibody #1, the fluorescence intensity was enhanced by 200% or more. […] The rate of increase in the fluorescence intensity is represented by the rate of increase in the mean fluorescence intensity (MFI value) in each cell and is calculated by the following calculation formula: […]

[2] = molecular target: T1, CAPRIN-1 protein expressed on the cell …; experiment: cell-based or functional assay

- rate of increase in mean fluorescence intensity over control [1]: ≥ 20%
B1: mouse monoclonal antibody #13 (antibody, V domains shown)
VH: EVQLHQFGAELVKPGASVKISCKASGYTFTDYNMDWVKQSHGKSLEWIGDINPNYDSTSYNQKFKGKATLTVDKSSSTAYMELRSLTSEDTAVYYCARSRSYDYEGFAYWGQGTLVTVSAAKTTPPSVY
VL: AVLRCSRGLLVIWISDIQLTQSPSSLAVTAGEKVTMSCKSSQSLLWSVNQKNYLSWYQQKQRQPPKLLIYGASIRESWVPDRFTGSGSGTDFTLTISNVHAEDLAVYYCQHNHGSFLPSRSEQVPSWRSNNR
notes: mouse hybridoma antibody; also called anti-CAPRIN-1 mouse monoclonal antibody #13; anti-CAPRIN-1 monoclonal antibody #13
- cytotoxicity (ADCC, 51Cr release) on TGBC14TKB, human NK cells [2]: ≥ 15%

- ADCC activity on TGBC14TKB, method as in Example 12 [2]: ≥ 20%
B2: human-mouse chimeric anti-CAPRIN-1 antibody #25 (antibody, human IgG1, kappa, V domains shown)
VH: GPGLVQPSQSLSITCTVSGFSLTTYDLHWVRQSPGKGLEWLGVIWSGGSTDYNAAFISRLSISKDNSKSQVFFKMNSLQANDTAIYYCARNYGYSAWFAYWGQGTLVTVSA
VL: DVLMTQTPLSLPVSLGDQASISCRSSQSIVHSNGNTYLEWYLQKPGQSPKLLIYKVSNRFSGVPDRFSGSGSGTDFTLKISRVEAEDLGVYYCFQGSHVPLTFGAGTKLELKR

- ADCC activity on TGBC14TKB, method as in Example 12 [2]: ≥ 20%
B3: human-mouse chimeric anti-CAPRIN-1 antibody #27 (antibody, human IgG1, kappa, V domains shown)
VH: GGGLVQPGGSMRLSCVASGFTFSNSWFNWVRQSPEKGLEWVAEIRLTSDNYAIYYAESVKGRFTISRDDSKSSVYLQMNNLRAEDTGIYYCTRPETARATFAYWGQGTTVTVSS
VL: B2 VL with L51V, S57F, L101R, A105G, E110N, L111Q, K112T, R113G

- ADCC activity on TGBC14TKB, method as in Example 12 [2]: ≥ 20%
B5: human-mouse chimeric anti-CAPRIN-1 antibody #26 (antibody, human IgG1, kappa)
heavy: not shown
light: PASSSDVLMTQTPLSLPVRLGDQSSISCRSSQSIVHSNGNTYLEWYLQKPGQSPKLLIYKVSNRFSGVPDRFSGSGSGTDFTLKISRVEPEDLGVYYCFQGSHVPYTSEGDQAEIKLATVAAPSVFIFPPSDEQLKSGTASVVCLLNNFYPREAKVQWKVDNALQSGNSQESVTEQDSKDSTYSLSSTLTLSKADYEKHKVYACEVTHQGLSSPVTKSFNRGEC

- rate of increase in mean fluorescence intensity over control [1]: ≥ 20%
B6: mouse-chicken chimeric antibody #2 (antibody, mouse IgG1, V domains shown)
VH: AVTLDESGGGLQTPGGGLSLVCKASGFTFSSFDMGWVRQAPGKGLEFVAQINDAGSRTWYATAVKGRATISRDNGQTTVRLQLNNLRAEDTGTYYCTRGSGYVGAGAIDAWGHGTEVIVS
VL: AALTQPSSVSANPGETVKITCSGGSGYYGWYQQQKSPGSAPVTVIYQNDKRPSDIPSRFSGSGSGSTNTLTITGVQAEDEAVYFCGRYDSTDSGIFGAGTTLTVL
notes: also called anti-CAPRIN-1 mouse-chicken chimeric antibody #2

- ADCC activity on TGBC14TKB, method as in Example 12 [2]: ≥ 20%
B8: human-mouse chimeric anti-CAPRIN-1 antibody #29 (antibody, human IgG1, kappa)
heavy: not shown
light: GTCGDIVMSQSPSSLAVSAGEKVTMSCKSSQSLLNSRTRKNYLAWVQHKPGQSPRLLIYWASTRESGVPDRFTGSGSGTDFTLTISSVQAEDLAVYYCRQSYNLVTFGAGPSTVAAPSVFIFPPSDEQLKSGTASVVCLLNNFYPREAKVQWKVDNALQSGNSQESVTEQDSKDSTYSLSSTLTLSKADYEKHKVYACEVTHQGLSSPVTKSFNRGEC

- rate of increase in mean fluorescence intensity over control [1]: ≥ 20%
B9: mouse-chicken chimeric antibody #3 (antibody, mouse IgG1, V domains shown)
VH: AVTLDESGGGLQTPGGALSLVCKASGFTFSGYDMLWVRQAPGKGLEWVAGIGSTGGGTDYGAAVKGRATISRDNGQSTVRLQLNNLRAEDTATYYCAKVAGGCNSGYCRDSPGSIDAWGHGTEVIVS
VL: AVTQQPASVSANPGETVKITCSGGGSRNYYGWYQQKSPGSVPVTVIYYDDQRPSNIPSRFSGALSGSTSTLTITGVQADDEAVYFCGSADSNTYEGSFGAGTTLTVL
notes: also called anti-CAPRIN-1 mouse-chicken chimeric antibody #3

- rate of increase in mean fluorescence intensity over control [1]: ≥ 20%
B10: mouse monoclonal antibody #8 (antibody, V domains shown)
VH: GGGLVKPGGSLKLSCAASGFAFSSYDMSWIRQTPEKRLEWVAYISSGAGSTYYPDTVKGRFTVSRDNAKNTLYLQMSSLKSEDTAMYYCARHFYRFDYWGQGTTVTVSS
VL: SIVMTQTPKFLLVSAGDRITITCKASQSVSNDVAWYQQKPGQSPKLLIYYASNRYTGVPDRFTGSGYGTDFTFTISTVQAEDLAVYFCQQDDRFPLTFGAGPS
notes: mouse hybridoma antibody; also called anti-CAPRIN-1 mouse monoclonal antibody #8; anti-CAPRIN-1 monoclonal antibody #8
- cytotoxicity (ADCC, 51Cr release) on TGBC14TKB, human NK cells [2]: ≥ 15%

- rate of increase in mean fluorescence intensity over control [1]: ≥ 20%
B11: mouse monoclonal antibody #12 (antibody, V domains shown)
VH: EVQLHQFGAELVKPGASVKISCKASGYTFTDYNMDWVKQSHGKSLEWIGDINPNYDSTSYNQKFKGKATLTVDKSSSTAYMELRSLTSEDTAVYYCARSRSYDYEGFAYWGQGTLVTVSA
VL: DIQMTQSPASLSASVGETVTITCRASGNIHNYLAWYQQKQGKSPQLLVYNAKTLADGVPSRFSGSGSGTQYSLKINSLQPEDFGSYYCQHFWSTLTFGAGTKLELKR
notes: mouse hybridoma antibody; also called anti-CAPRIN-1 mouse monoclonal antibody #12; anti-CAPRIN-1 monoclonal antibody #12
- cytotoxicity (ADCC, 51Cr release) on TGBC14TKB, human NK cells [2]: ≥ 15%

- ADCC activity on TGBC14TKB, method as in Example 12 [2]: ≥ 20%
B16: human-mouse chimeric anti-CAPRIN-1 antibody #28 (antibody, human IgG1, kappa, V domains shown)
VH: GPDLVKPGASVKISCKASGYSFTAYYMHWVKQSHGKSLEWIGRVNPNNGGTTYNQKFKGKAILTVDKSSSTAYMELRSLTFEDSAVYYCARRIYYGYFDYWGQGTTVTVSS
VL: AFFAVSLGQRATISCKASQSVDYDGDSYMNWYQQKPGQPPKLLIYVASNLESGVPARFSGSGSGTDFTLNIHPVEEEDAATYYCQQSNEDPYTFGGGTKLEIKQ

The next lines start with the binder.

B4: human-chicken chimeric antibody #2 (antibody, human IgG1, kappa, V domains shown)
VH: AVTLDESGGGLQTPGGGLSLVCKASGFTFSSFDMGWVRQAPGKGLEFVAQINDAGSRTWYATAVKGRATISRDNGQTTVRLQLNNLRAEDTGTYYCTRGSGYVGAGAIDAWGHGTEVIVSA
VL: AALTQPSSVSANPGETVKITCSGGSGYYGWYQQQKSPGSAPVTVIYQNDKRPSDIPSRFSGSGSGSTNTLTITGVQAEDEAVYFCGRYDSTDSGIFGAGTTLTVLT
- cytotoxicity (ADCC, 51Cr release) on TGBC14TKB, human NK cells [2]: ≥ 15%

B7: human-mouse chimeric anti-CAPRIN-1 antibody #36 (antibody, human IgG1, kappa)
heavy: not shown
light: QDELSNPVTSGESVSISCRSSKSLLYKDGKTYLNWFLQRPGQSPQLLIYLMSTRASGVSDRFSGSGSGTDFTLEISRVKAEDVGVYYCQQLVEDPLTFGAGTKLELKRTVAAPSVFIFPPSDEQLKSGTASVVCLLNNFYPREAKVQWKVDNALQSGNSQESVTEQDSKDSTYSLSSTLTLSKADYEKHKVYACEVTHQGLSSPVTKSFNRGEC
- ADCC activity (cytotoxicity, 51Cr release) on TGBC14TKB, antibody 5 ug/mL, human NK cells [2]: ≥ 20%

B12: human-mouse chimeric anti-CAPRIN-1 antibody #23 (antibody, human IgG1, kappa, V domains shown)
VH: GGGLVKPGGSLKLSCAASGFTFSSYGMSWVRQTPEKRLEWVATISSGGSYTYYPDSVKGRFTISRDNAKNTLYLQMSSLRSEDTAMYYCASLASYYFDYWGQGTTLTVSS
VL: GARCDVQMIQSPSSLSASLGDIVTMTCQASQGTSINLNWFQQKPGKAPKLLIYGASSLEDGVPSRFSGSCFGTDFTLTISSLEDEDMATYFCLQHSYLPPLTFGAGTKLELKR
- ADCC activity on TGBC14TKB, method as in Example 12 [2]: ≥ 20%

B13: human-mouse chimeric anti-CAPRIN-1 antibody #24 (antibody, human IgG1, kappa, V domains shown)
VH: B12 VH
VL: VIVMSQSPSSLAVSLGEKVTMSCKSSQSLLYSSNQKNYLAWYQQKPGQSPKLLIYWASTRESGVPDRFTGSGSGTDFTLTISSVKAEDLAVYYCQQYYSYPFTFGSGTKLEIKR
- ADCC activity on TGBC14TKB, method as in Example 12 [2]: ≥ 20%

B14: human-mouse chimeric anti-CAPRIN-1 antibody #30 (antibody)
heavy: not shown
light: DVQITQSPSYLAASPGETITINCRASKSISKYLAWYQEKPGKTNKLLIYSGSTLQSGIPSRFSGSGSGTDFTLTISSLEPEDFAMYYCQQHNEYPYTFGGGTKLEIKRTVAAPSVFIFPPSDEQLKSGTASVVCLLNNFYPREAKVQWKVDNALQSGNSQESVTEQDSKDSTYSLSSTLTLSKADYEKHKVYACEVTHQGLSSPVTKSFNRGEC
- ADCC activity (cytotoxicity, 51Cr release) on TGBC14TKB, antibody 5 ug/mL, human NK cells [2]: ≥ 20%

B15: human-mouse chimeric anti-CAPRIN-1 antibody #31 (antibody, human IgG1, kappa)
heavy: not shown
light: B14 light with Y96W
- ADCC activity (cytotoxicity, 51Cr release) on TGBC14TKB, antibody 5 ug/mL, human NK cells [2]: ≥ 20%

B17: human-mouse chimeric anti-CAPRIN-1 antibody #34 (antibody, human IgG1, kappa, V domains shown)
VH: GAELVRPGTSVKVSCKASVYAFTNYLIEWVKQRPGQGLEWIGVINPKSGGTKYNEKFRGKATLTADKSSSTAYMQLSSLTSGDSAVYFCAITGTDYWGQGTTLTVSS
VL: QGTRCDIQMTQTTSSLSASLGDRVTISCSASQGINNYLNWYQQKPDGTVKLLIYYTSSLRSGVPSRFSGSGSGTDYSLTISNLEPEDVATYYCQQYSKLPRTFGGGTKLEIKR
- ADCC activity (cytotoxicity, 51Cr release) on TGBC14TKB, antibody 5 ug/mL, human NK cells [2]: ≥ 20%
